In patent publication US7375083B2, “Pharmaceutical compositions for prevention of overdose or abuse” (Shire LLC, priority 2003, dated 2008):
Where a SMILES comes first, the peptide text is derived from it. The star is where a group is joined. X1 = COc1ccc2c3c1O[C@H]1C(O*)=CC[C@H]4[C@@H](C2)N(C)CC[C@]314

Assay: Intravenous bioavailability of hydrocodone conjugates in rats, LC/MS/MS
Conditions: intravenous
[1] = 1 mg/kg dose, hydrocodone plus hydromorphone
[2] = 1 mg/kg dose, relative to hydrocodone bitartrate
[3] = 1 mg/kg hydrocodone base content
[4] = 1 mg/kg hydrocodone base content, 0 h
[5] = 1 mg/kg hydrocodone base content, 0.1 h
[6] = 1 mg/kg hydrocodone base content, 0.5 h
[7] = 1 mg/kg hydrocodone base content, 1.0 h
[8] = 1 mg/kg hydrocodone base content, 2.0 h
[9] = 1 mg/kg hydrocodone base content, 4.0 h

## CC[C@H](C)[C@H](NC(=O)[C@H](Cc1ccccc1)NC(=O)[C@H](Cc1ccccc1)NC(=O)[C@H](Cc1ccc(O)cc1)NC(=O)[C@@H](N)Cc1ccc(O)cc1)C(=O)OC1=CC[C@H]2[C@H]3Cc4ccc(OC)c5c4[C@@]2(CCN3C)[C@H]1O5 [YYFFI[SEQ ID NO: 8]-HC, Tyr-Tyr-Phe-Phe-Ile[SEQ ID NO: 8]-(6-O)-Hydrocodone] (H-YYFFI-X1)
1 mg/kg dose, 5 Minutes
  hydrocodone plus hydromorphone concentration: 171 ng/mL
1 mg/kg dose, 15 Minutes
  hydrocodone plus hydromorphone concentration: 28 ng/mL
1 mg/kg dose, 30 Minutes
  hydrocodone plus hydromorphone concentration: 22 ng/mL
1 mg/kg dose, 60 Minutes
  hydrocodone plus hydromorphone concentration: 18 ng/mL
[1]
  AUC (ng/ml h) 0-1 h: 40 ng·h/mL
  Cmax: 171 ng/mL
[2]
  Percent HC (AUC): 29%
  Percent HC (Cmax): 72%
[3]
  HC (hydrocodone) AUC, Percent relative to hydrocodone bitartrate: 19%
  HC (hydrocodone) Cmax: 8.7 ng/mL
  HC (hydrocodone) Cmax, Percent relative to hydrocodone bitartrate: 20.2%
  HC + HM AUC, Percent relative to hydrocodone bitartrate: 36%
  HC + HM Cmax: 22.6 ng/mL
  HC + HM Cmax, Percent relative to hydrocodone bitartrate: 10.8%
  HM (hydromorphone) AUC, Percent relative to hydrocodone bitartrate: 33%
  HM (hydromorphone) Cmax: 31.3 ng/mL
  HM (hydromorphone) Cmax, Percent relative to hydrocodone bitartrate: 12.4%
[4]
  Mean HC (hydrocodone) concentration: 0 ng/mL
  Mean HC + HM concentration: 0 ng/mL
  Mean HM (hydromorphone) concentration: 0 ng/mL
[5]
  Mean HC (hydrocodone) concentration: 8.75 ng/mL
  Mean HC + HM concentration: 22.6 ng/mL
  Mean HM (hydromorphone) concentration: 31.3 ng/mL
[6]
  Mean HC (hydrocodone) concentration: 1.44 ng/mL
  Mean HC + HM concentration: 13.5 ng/mL
  Mean HM (hydromorphone) concentration: 14.9 ng/mL
[7]
  Mean HC (hydrocodone) concentration: 0.92 ng/mL
  Mean HC + HM concentration: 13.0 ng/mL
  Mean HM (hydromorphone) concentration: 13.9 ng/mL
[8]
  Mean HC (hydrocodone) concentration: 0.41 ng/mL
  Mean HC + HM concentration: 13.1 ng/mL
  Mean HM (hydromorphone) concentration: 13.5 ng/mL
[9]
  Mean HC (hydrocodone) concentration: 0.33 ng/mL
  Mean HC + HM concentration: 8.5 ng/mL
  Mean HM (hydromorphone) concentration: 8.8 ng/mL
